In publication PMC2603141 (Virology, 2008):

Legend:
[1] = molecular target: the molecule itself; experiment: reducing and non-reducing SDS-PAGE
[2] = molecular target: the molecule itself; experiment: negative-stain electron microscopy

B1: PIV 5 hemagglutinin-neuraminidase (HN) ectodomain beginning at residue 56, HN(ecto56) (domain or fragment)
chain: SPSSGLGSITDLLNNILSVANQIIYNSAVALPLQLDTLESTLLTAIKSLQTSDKLEQNCSWSAALINDNRYINGINQFYFSIAEGRNLTLGPLLNMPSFIPTATTPEGCTRIPSFSLTKTHWCYTHNVILNGCQDHVSSNQFVSMGIIEPTSAGFPFFRTLKTLYLSDGVNRKSCSISTVPGGCMMYCFVSTQPERDDYFSAAPPEQRIIIMYYNDTIVERIINPPGVLDVWATLNPGTGSGVYYLGWVLFPIYGGVIKGTSLWNNQANKYFIPQMVAALCSQNQATQVQNAKSSYYSSWFGNRMIQSGILACPLRQDLTNECLVLPFSNDQVLMGAEGRLYMYGDSVYYYQRSNSWWPMTMLYKVTITFTNGQPSAISAQNVPTQQVPRPGTGDCSATNRCPGFCLTGVYADAWLLTNPSSTSTFGSEATFTGSYLNTATQRINPTMYIANNTQIISSQQFGSSGQEAAYGHTTCFRDTGSVMVYCIYIIELSSSLLGQFQIVPFIRQVTLS
modifications: carbohydrate at 4 N-linked glycosylation sites; inter-chain disulfide bond (covalent dimers)
With B1 the “stoichiometry N” value [1] was 2 and the “stoichiometry N” value [2] was 4.
